The values that follow come from the RNAGym collection of RNA variant scans (doi:10.1073/pnas.2313332121).

To fix the notation:
B1: TPR 5TU (parent)
chain: GGAUCUUCUCGAUCUAACAAAAAAGACAAAUCUGCCACAAAGCUUGAGAGCAUCUUCGGAUGCAGAGGCGGCAGCCUUCGGUGGCGCGAUAGCGCCAACGUUCUCAACUAUGACACGCAAAACGCGUGCUCCGUUGAAUGGAGUUUAUCAUG

Fewer inactive variants are shown than the library holds.

Variants of B1 are the subject of this data set. In words: polymerase ribozyme fitness, log enrichment relative to wild type (log ratio); higher = more active; in vitro selection for triplet polymerase activity. The procedure, abridged: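 Each subunit of a heterodimeric triplet polymerase ribozyme was represented by a PCR-built, transcribed mutant library that underwent triplicate single-round in vitro selection with frozen incubation at −7 °C. Extended constructs were recovered by gel excision, streptavidin-bead capture and RT-PCR, and Illumina sequencing of input and output libraries kept genotypes with ≥10 input reads and ≥1 read per output. Fitness is the logarithm of genotype enrichment relative to wild-type enrichment, from inverse-variance-weighted replicate averages, with a logarithm base of 2.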
Regarding GGAUCUUCUCGAUCUAACAAAAAAGACAAAUCUGUCACAAAGCUUGAGAGCAUCUUCGGAUGCAGAGGCAGCAGCCUUCGGUAGCGCGAUAGCGCCAACGUUCUCAACUAUGACAGGCACAACGCGUGCUCCGAUGAAUGGAGUUUAUCAUG, the “polymerase ribozyme fitness (log ratio)” value was at most -4.2.

For GGAUCUUCUCGAUCUAACAAAAAAGAGAAAUCUGCCACAAAGCUUGAGAGCAUAUUCGGAUGCACAGGCGGCAGCCUUCGGUGGCGCGAUAGCGUAAAAGUUCUCAACUAUGACACGCAAAACGCGUGCUCCGUUGAAUGGAGUUUAUCAUG, the “polymerase ribozyme fitness (log ratio)” value is at most -4.2.

Consider GGAACUUCUCGAUCUAACAAAAAAGACAAAUCCGCCACAAAGCUUGAGAGCAUCUUCGAAUGCAGAGGCGGCAGCCUUCGGUGGCGCGAGAGCGACAACGUUCUCAACUAGGACACGCAAAACGAGUGCUCCGUUGAAUGGAGUUUAUCAUG, for which the “polymerase ribozyme fitness (log ratio)” value was at most -4.2.

As to GGAUCUUCUCGAUCUAACAAAAAAGACAAAUCUGCCACAAAGCUUGAGAGCAAAUUCCGAUGCCGAGGCGGCAGCCUUCGGUGGCGCGAUAGCGCCAACGUUCUCAACUAUGACACGCAAAACGCAUGCUCCGUCGACUGGAGUUUAUCAUG, the “polymerase ribozyme fitness (log ratio)” value was at most -4.2.

Regarding GGAUCUUCUCGAUCUAACAAAAAAGACAAAUCUGCCACCAAGCUUGAGAGCAUCUUCGGAUGCAGCGGCGGCAGCCUUCGGUGGCUCGAUAGCGCCAACGUUCUCAACUAUGACACGCAAAACGCGUGCUCCGUUGAAUGGAGUUUAUCAUG, the “polymerase ribozyme fitness (log ratio)” value is at most -4.2.

Take GGAUCUUCUCGAUUUAACAAAAAAGACAAAUCUGCCACAAAGCUUGAGAGCAUCUUCGGAUGCAGAGGCGGCAGCCUUCGGUGGCGCGAUACCGCCAACGUUCUCAACUAUGACACGCAAAACGCGUGCUCCGUUGAAUGGAGUUUAUCAUG: the “polymerase ribozyme fitness (log ratio)” value was -1.88.

With GGAUCUUCUCGAUCUAACAAAAAAGACAUAUCUGCCACAAAGCUUGAGAGCGUCUUCGGAUGCAGAGGCGGCAGCGUUCGGUGACGCGAUAGCGCCAACGUUCUCAACUAUGACAGGAAAAACGCGUGCUCCGUUGGAUGAAGUUUAUUAUC, the “polymerase ribozyme fitness (log ratio)” value is at most -4.2.

For the variant GGAUCUUCUCGAUCUAACAAAAAAGACAAAUCCGCCACAAAGCUUGAGAGCAUCUUCGGAUGCAGAGGCGGCAGCCUUCGGUGGCGCGAUAGCGCCAACGUUCUCAACUAUGACACGCAAAACGAGUGCUCCGUUGAAUGGAGUUUAUCAUG, the “polymerase ribozyme fitness (log ratio)” value was -3.35.

For the variant GGAUCUUAUCGAUCUAACAAAAAAGACAAAUCUGCCACAAAGCUUGAGAGCAUCUUCGGAUGCAGAGGCGGCAGCCUUCGGUGGCAUGAUAGCGCCAACGUUCUCAACUAUGACACGCAAAACGCGUGCUCCGUUGAUUGGAGUUUAUCAUG, the “polymerase ribozyme fitness (log ratio)” value was at most -4.2.

As to GGAUCUUCUCGAUCUAACAAAAAAGACAAAUCUGCCACAAAGCUUGAGAGCAUCAUCGGAUGCAGAGGCGGCAGCCUUCGGUGGCGCGAUAGCGCAAACGUUCUCACCUAUGACAAGCAAAACCCGUGCUCCGUUGAAUGGAGUUUAUCAAG, the “polymerase ribozyme fitness (log ratio)” value was at most -4.2.

GGAUCUUCUCGAUCUAACAAAAAAGACAAAUCUGCCACAAAGCUUCAGAGCAUCAUCGGAUGCAGAGGCGGCAGCCUUCGGUGGCGCGUUAGGGCCAACGUUCUCCACUAUGACACGCAAAACGCGCGCUCCGUUGAAUCGAGUUUAUCAUG: the “polymerase ribozyme fitness (log ratio)” value is at most -4.2.

With GGAUCUUCUCGAUCUAACAAAAAAGACAAAUCUGCCACAAAGCUUGAGAGCAUCUUCGGAUGCAGAGGCGGCAGCCUUCGGUGGCGCGAUAGCGCCAACGUUCUCAACUAUGACACGCAAAACGCGUGCUCCGUUGAAUGGAGCUUGUCAUG, the “polymerase ribozyme fitness (log ratio)” value was -0.508.

Regarding GGAUCUUCUCGAUCUAACAAAAAAGACAAAUCUGCCACAAAGCUUGAGAGCAUUUUCGGAUGCAGAGGCGGCAGCGUUCGGUGGCGCGCUGGCUCCAACGUUCUCAACUAUGACACGCAAAACGCGUGCUCCGUUGAAUGGAGUUGAUCAUG, the “polymerase ribozyme fitness (log ratio)” value was at most -4.2.

For GGAUCUUCUCGAUCUAACAAAAAAGACAAAUCUGCCACAAAGCUUGAGAGCAUCUUCGAAUGCAGAGGCGGCAGCCUUCGGAGGCGCGAUAGCGGCAACGUUCUCAACUAUGACACGCAAAACGCGUGCUCCGUUAAAUGGAGUUUAUCAUG, the “polymerase ribozyme fitness (log ratio)” value was -1.25.

For GGAUCUUCUCGAUCUAACAAAAAAGACAAAUCUGCCACAAAGCUUGAGAGCAUCUUCGGGUGCAGAGGCGGUAGCCUUCGGUGGCGCGAUAGCGCCAACGUUCUCAACUAUGACACGCAAAACGCGUGCUCCGUUGAAUGGAUUUUAUCAUG, the “polymerase ribozyme fitness (log ratio)” value was -3.39.

Turning to GGAUCUUCUGGAUCUAACAAAAAAGACAAAUCUGCCACAAAGGUUGAGAGCAUCAUCGGAUGCAGAGGCGGCAGCCUUCGGUAGCGCGAUACCGCCAACGUUCUCAACUAUGACACGCAAAACGAGUGCUCCGUUGAAUGGAGUUUAUCAUG, the “polymerase ribozyme fitness (log ratio)” value was at most -4.2.

As for GGAUCUUCUCGAUCUACCCAAAAAGACAAAUCUGCCACAAAGCUUGAGAGCAUCAUCGGAUGCAGAGGCGGCAGCCUUCGGUGGCGCGAUAGCACCAACGUUCUCAACUAUGACACGCAAAACGCGUGCUCCGUUGAAUGGAGUUUAUCAUG, the “polymerase ribozyme fitness (log ratio)” value was 1.05.

Turning to GGAUCUUCUCGAUCUAACAAAAAAGACAAAUCUGCCACAAAGCUUGAGAGCAUGUUCGGAUGCAGAGGCGGCAGCCUUCGGUGGCGCGAUAGCGCGAACGUUCUCAACUAUGACACGCAAAACGCGUUCUCCGUUGAAUGGAGUUUAUCAUG, the “polymerase ribozyme fitness (log ratio)” value is at most -4.2.

Consider GGAUCCUCUCGAUCUAACAAAAAAGACAAAUCUGCAACAAAGCUUGAGAGCAUCUUCGGAUGCAGACGCGGCAGCCUUCGGUGGUGCGAUAGCGCCAACGUUCUCAACUAUGACACGCAAAACCCGUGCUCUGUUGAAUGGAGUUUAUCAUG, for which the “polymerase ribozyme fitness (log ratio)” value is at most -4.2.
